Measured values: the supplement of paper PMC9170038

Tested on: MS2 coat protein
Test: apparent KD of MS2 coat protein; designed switch direction (-1 OFF switch, 1 ON switch): -1; higher = weaker reporter binding
In short: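 The reported apparent KD is a per-design median over clusters, from curve fits of normalised cluster fluorescence. Protein titrations used SNAP-549-labelled MS2 coat protein, doubled from 0.7 or 1.5 nM to 3 µM, in Tris-HCl pH 7.5 buffer with KCl, MgCl2, BSA, DTT, tRNA and Tween-20, with no input, 200 uM small-molecule ligand, or an oligonucleotide input. The RNA switches were transcribed on Illumina chips by stalled E. coli RNA polymerase.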

[1] = input ligand: microRNA oligo, concentration not stated
[2] = Eterna round: R95, input ligand: microRNA oligo, concentration not stated
[3] = Eterna round: R95, input ligand: FMN 200 uM
[4] = Eterna round: R95, input ligand: none

GCAGACGUAGUGAGGAUAUGCUCUACCUCGGUAGAGCAGAAGGCACAUGAGGAUCACCCAUGUGGCUCCUCAUU [Omei Ex4B B22] (Eterna round: R97, puzzle: Brourd's mod of Exclusion 4)
apparent KD of MS2 coat protein (input ligand: FMN 200 uM): 0.0168 µM | apparent KD of MS2 coat protein (input ligand: none): 0.015 µM

GCAGCAACUCUAACCAACUAAACAUGAGGAUCACCCAUGUCUCAGGAUAUGGUCUGGAUUACAGGCCAGAAGGGAGAAAGCUGC [Eli exng3 - 042] (Eterna round: R96, puzzle: Exclusion NG 3)
apparent KD of MS2 coat protein (input ligand: FMN 200 uM): 0.0124 µM | apparent KD of MS2 coat protein [1]: 0.0123 µM | apparent KD of MS2 coat protein (input ligand: none): 0.0126 µM

GCAGCAUAGAUAACAUACUGUUACAUGAGGAUCACCCAUGUAUAGGAUAUGGUCUGGAUUACAGGCCAGAAGGGUACAAGCUGC [Eli exng3 - 022] (Eterna round: R96, puzzle: Exclusion NG 3)
apparent KD of MS2 coat protein (input ligand: FMN 200 uM): 0.0126 µM | apparent KD of MS2 coat protein [1]: 0.00984 µM | apparent KD of MS2 coat protein (input ligand: none): 0.0144 µM

GCAGCAUAGUCGGAAACGACAGAACAUGAGGAUCACCCAUGUCAGGAUAUGGUCUGGAUUACAGGCCAGAAGGGACAAAGCUGC [Eli exng3 - 008] (Eterna round: R96, puzzle: Exclusion NG 3)
apparent KD of MS2 coat protein (input ligand: FMN 200 uM): 0.0196 µM | apparent KD of MS2 coat protein [1]: 0.0141 µM | apparent KD of MS2 coat protein (input ligand: none): 0.0198 µM

GCAGCGUAUGUAGGAUAUCGGUCAGUUUCUGAUCGAGAAGGACAUGAGGAUCACCCAUGUGCGGUCAUGCGUGAGCAUGGCUGC [JL ENG1 3.74] (Eterna round: R96, puzzle: Exclusion NG 1)
apparent KD of MS2 coat protein (input ligand: FMN 200 uM): 0.268 µM | apparent KD of MS2 coat protein [1]: 0.0313 µM | apparent KD of MS2 coat protein (input ligand: none): 0.0412 µM

GCAGCGUAUGUAGGAUAUCGGUCAGUUUCUGAUCGAGAAGGACAUGAGGAUCACCCAUGUUAUUUCAUGCGUGAGCAUGGCUGC [JL ENG1 3.73] (Eterna round: R96, puzzle: Exclusion NG 1)
apparent KD of MS2 coat protein (input ligand: FMN 200 uM): 0.271 µM | apparent KD of MS2 coat protein [1]: 0.031 µM | apparent KD of MS2 coat protein (input ligand: none): 0.0371 µM

GCAGCUAACUGUGAUAACAGCACAUGAGGAUCACCCAUGUCUGAGGAUAUGGACUGGAUUACAGUCCAGAAGGCAGAAUGCUGC [Zipper Style 7] (Eterna round: R96, puzzle: Exclusion NG 3)
apparent KD of MS2 coat protein (input ligand: FMN 200 uM): 0.0108 µM | apparent KD of MS2 coat protein [1]: 0.00887 µM | apparent KD of MS2 coat protein (input ligand: none): 0.0134 µM

GCAGGUUAAGUCAGGAUAUACCUAUGGAUACAUAGGUAGAAGGGACAUGAGGAUCACCCAUGUGGCUCACCUGC [Fiskers BMX 4 - 60] (puzzle: Brourd's mod of Exclusion 4)
apparent KD of MS2 coat protein [2]: 0.0216 µM

GCAGUUCGAGUUAGGAUAUGAUGUUAAUUCGGAUAUCAGAAGGAACUUGAGGAUCACCCAAGUAUAGAUGUUGU [JR_BMEx4_Sub061] (Eterna round: R97, puzzle: Brourd's mod of Exclusion 4)
apparent KD of MS2 coat protein (input ligand: FMN 200 uM): 0.0313 µM | apparent KD of MS2 coat protein (input ligand: none): 0.0198 µM

GCAUCCAUAGUGAGGAUAUACCUCUGGAUACAUAGGUAGAAGGCACAUGAGGAUCACCCAUGUUCUUAGGAUGC [Fiskers BMX 4 - 34] (puzzle: Brourd's mod of Exclusion 4)
apparent KD of MS2 coat protein [2]: 0.0239 µM

GCAUGCUAUGUCAGGAUAUACCUCUGGAUACAUAGGUAGAAGGGACAUGAGGAUCACCCAUGUCCUCAUCAUGC [Fiskers BMX 4 - 25] (puzzle: Brourd's mod of Exclusion 4)
apparent KD of MS2 coat protein [2]: 0.0135 µM

GCAUUUGAGCAGGAUAUAGCCUGAACAUAAUGGUUAGAAGGGCUCACAUGAGGAUCACCCAUGUGGUGUCCAAA [Inratete] (puzzle: Exclusion 6)
apparent KD of MS2 coat protein [3]: 0.0764 µM | apparent KD of MS2 coat protein [2]: 0.0153 µM | apparent KD of MS2 coat protein [4]: 0.0156 µM

GCCAAGUCAGGAUAUACAUGAGGAUCACCCAUGUAGGACGCUAUUUUGAUCUUGGUAGGUAGAAGGGACAUGGG [Mainaso] (puzzle: Exclusion 3)
apparent KD of MS2 coat protein [2]: 0.0218 µM

GCCAGAGCAGGAUAUCUAAUAUCUCACAUGAGGAUCACCCAUGUCUAGCGAAAGCUAGAGGGAGAAGGGCUCUGGC [Mat - Exclusion 5 - Eli mod - D93] (puzzle: Exclusion 5)
apparent KD of MS2 coat protein [3]: 0.0281 µM | apparent KD of MS2 coat protein [2]: 0.0294 µM | apparent KD of MS2 coat protein [4]: 0.0416 µM

GCCAGAGCAGGAUAUCUAAUAUGUCACAUGAGGAUCACCCAUGUCCAGCGAAAGCUGGAGGGAGAAGGGCUCUGGC [Fiskers Ex 5 - 21] (puzzle: Exclusion 5)
apparent KD of MS2 coat protein [2]: 0.0518 µM

GCCAGAGCAGGAUAUUCAAUAAUCCACAUGAGGAUCACCCAUGUCCAGCGAAAGCUGGAGGGAGAAGGGCUCUGGC [Fiskers Ex 5 - 7] (puzzle: Exclusion 5)
apparent KD of MS2 coat protein [2]: 0.0734 µM

GCCAGAGCAGGAUAUUCAAUAAUUCACAUGAGGAUCACCCAUGUCCAGCGAAAGCUGGAGGGAGAAGGGCUCUGGC [Fiskers Ex 5 - 2] (puzzle: Exclusion 5)
apparent KD of MS2 coat protein [3]: 0.0175 µM | apparent KD of MS2 coat protein [2]: 0.0334 µM | apparent KD of MS2 coat protein [4]: 0.0443 µM

GCCAGAGCAGGAUAUUCAAUAUCACACAUGAGGAUCACCCAUGUCUAUCGAAAGAUAGAGGGAGAAGGGCUCUGGC [Mat - Exclusion 5 - Eli mod - D94] (puzzle: Exclusion 5)
apparent KD of MS2 coat protein [2]: 0.0552 µM

GCCCGGGCAGGAUAUACAAUGAGCUUGAGAAAUCGAGUUCGACAUGAGGAUCACCCAUGUAGAAGGGCCCGGGC [-37.4, -35.1 kcal, A 28% 1] (Eterna round: R97, puzzle: Exclusion 2)
apparent KD of MS2 coat protein (input ligand: FMN 200 uM): 0.0245 µM | apparent KD of MS2 coat protein (input ligand: none): 0.0149 µM

GCCCGUGGGCAAGGAUAUCCUACGCUGUUCUGGUUCGUGUCUGUCACAUGAGGAUCACCCAUGUGGGAGAAGGUGCAUUAGGGU [Design 54] (Eterna round: R96, puzzle: Exclusion NG 2)
apparent KD of MS2 coat protein (input ligand: FMN 200 uM): 0.0167 µM | apparent KD of MS2 coat protein [1]: 0.0123 µM | apparent KD of MS2 coat protein (input ligand: none): 0.0168 µM

GCCGAAAAUGUGAGGAUAUACCUAUGGAUACAUAGGUAGAAGGCACAUGAGGAUCACCCAUGUCCAAUAACGGC [Eli bmx4 4.25] (Eterna round: R97, puzzle: Brourd's mod of Exclusion 4)
apparent KD of MS2 coat protein (input ligand: FMN 200 uM): 0.528 µM | apparent KD of MS2 coat protein (input ligand: none): 0.223 µM

GCCGAAAGUGUGAGGAUAUACCUAUGGAAACAUAGGUAGAAGGCACAUGAGGAUCACCCAUGUGUUUCAACGGC [Mat - Exclusion 4 - Eli Mod - D20] (Eterna round: R97, puzzle: Brourd's mod of Exclusion 4)
apparent KD of MS2 coat protein (input ligand: FMN 200 uM): 0.067 µM | apparent KD of MS2 coat protein (input ligand: none): 0.0245 µM

GCCGAGUGAGGAUAUACAUGAGGAUCACCCAUGUAAACACGAAAGCAAGUGUCCCUCAGUAGAAGGCGCCAGGA [Xeanonis] (puzzle: Exclusion 3)
apparent KD of MS2 coat protein [3]: 0.0182 µM | apparent KD of MS2 coat protein [2]: 0.0139 µM | apparent KD of MS2 coat protein [4]: 0.014 µM

GCCGAUUAAGUCAGGAUAUACCUAUGGAUACAUAGGUAGAAGGGACAUGAGGAUCACCCAUGUUCCUCUACGGC [Fiskers BMX 4 - 16] (puzzle: Brourd's mod of Exclusion 4)
apparent KD of MS2 coat protein [2]: 0.0136 µM

GCCGAUUAAGUGAGGAUAUACCUAUGGAUACAUAGGUAGAAGGCACAUGAGGAUCACCCAUGUUCCUUAACGGC [Fiskers BMX 4 - 7] (puzzle: Brourd's mod of Exclusion 4)
apparent KD of MS2 coat protein [2]: 0.0105 µM

GCCGCUCACGAGGAUAUGGUGGAAAAGCCUUUGCUAGAAGGCGUGACAUGAGGAUCACCCAUGUAGGCACAUGA [Eternabot (L1) Solution 85] (Eterna round: R97, puzzle: Exclusion 6)
apparent KD of MS2 coat protein (input ligand: FMN 200 uM): 0.0249 µM | apparent KD of MS2 coat protein (input ligand: none): 0.0304 µM

GCCUACAGAGGAUAUACAAAUGUAUGAAACCUGUUUAGACGACAUGAGGAUCACCCAUGUAGAAGGCUGUGGGC [Eternabot (L1) Solution 85] (Eterna round: R97, puzzle: Exclusion 2)
apparent KD of MS2 coat protein (input ligand: FMN 200 uM): 0.285 µM | apparent KD of MS2 coat protein (input ligand: none): 0.0375 µM

GCCUCACAUGAGGAUCACCCAUGUGAGGAUAUUGAGUUACCAGGCGAACAAGCGACUACGAGAAGGCACGUGGA [Eternabot (L2) Solution 85] (Eterna round: R97, puzzle: Exclusion 1)
apparent KD of MS2 coat protein (input ligand: FMN 200 uM): 0.012 µM | apparent KD of MS2 coat protein (input ligand: none): 0.0139 µM

GCCUGGGCAGGAUAUACAUGAGGAUCACCCAUGUCUGUUGACCGAACUCCGGAUAUAUGUAGAAGGGUCGCAGA [Eternabot (L1) Solution 100] (Eterna round: R97, puzzle: Exclusion 3)
apparent KD of MS2 coat protein (input ligand: FMN 200 uM): 0.0551 µM | apparent KD of MS2 coat protein (input ligand: none): 0.0498 µM

GCGCAAACGCCAAAAGGCGAAACAACAUGAGGAUCACCCAUGUAGGAUAUCGAUUGCUUUGCAGUCGAGAAGGACGUAAUGCGC [JL ENG3 3.80 Mod 5] (Eterna round: R96, puzzle: Exclusion NG 3)
apparent KD of MS2 coat protein (input ligand: FMN 200 uM): 0.0127 µM | apparent KD of MS2 coat protein [1]: 0.0149 µM | apparent KD of MS2 coat protein (input ligand: none): 0.0221 µM

GCGCCAUCGUGAGAUGGCGUACCAACAUGAGGAUCACCCAUGUAGGAUAUCGAUUGCUUUGCAGUCGAGAAGGGCAUGAUAAGU [JL ENG3 3.76] (Eterna round: R96, puzzle: Exclusion NG 3)
apparent KD of MS2 coat protein [1]: 0.0172 µM

GCGCCAUCGUGAGAUGGCGUAUAUACAUGAGGAUCACCCAUGUAGGAUAUCGAUUGCUUUGCAGUCGAGAAGGGCAUGUAAUUU [JL ENG3 3.93] (Eterna round: R96, puzzle: Exclusion NG 3)
apparent KD of MS2 coat protein [1]: 0.0258 µM

GCGGAGAGAGAAGGAUAUUGAAAUGCUUCUACAUGAGGAUCACCCAUGUUCGGCAGACAUGGGACCAAGAAGGUCUAUGUCGCG [Eternabot solution 27] (Eterna round: R96, puzzle: Exclusion NG 2)
apparent KD of MS2 coat protein (input ligand: FMN 200 uM): 0.0702 µM | apparent KD of MS2 coat protein [1]: 0.0404 µM | apparent KD of MS2 coat protein (input ligand: none): 0.0554 µM

GCGGAGUCGAUCGUGAGAUCGGAGACAUGAGGAUCACCCAUGUAGGAUAUCGAUUGCUUUGCAGUCGAGAAGGGCGUGCUCCGC [JL denovo 18] (Eterna round: R96, puzzle: Exclusion NG 3)
apparent KD of MS2 coat protein (input ligand: FMN 200 uM): 0.0199 µM | apparent KD of MS2 coat protein [1]: 0.0186 µM | apparent KD of MS2 coat protein (input ligand: none): 0.0229 µM
